In one experiment the target is T1, HLA-A*0101 (human).
T1 construct: whole, on cells; The peptide was eluted from total HLA class I immunoprecipitated with W6/32; also called HLA-A1; HLAA1
The experiment in a line: HLA class I immunoprecipitation, acid elution, tandem MS.

In experiment [1] the target is T2, VGLL1 (Vestigial-like 1) peptide on HLA-A*01:01 (human).
T2 peptide: LSELETPGKY
The experiment in a line: multimer staining.

Description for HLA-A*0101: Protein A/G Ultralink resin beads were used to immunoprecipate HLA class I molecules and HLA-bound peptides were then eluted with 0.1M acetic acid. HLA-A, B, C isolation was confirmed by Western blot analysis, then HLA-positive elutes were analyzed by tandem mass spectrometry (MS/MS). HLA class I protein recovery was semi-quantitatively assessed by rating Western blot band intensity on a scale from 0 (not detectable) to 4 (highest intensity). Tumor-associated HLA-bound peptides were injected onto HPLC system (Dionex 3000 RSLC), and separated by reverse-phase chromatography in 0.1% formic acid water-acetonitrile on 1.8 μm C18 (Agilent Technologies) in the MS/MS discovery phase. Peptides were analyzed on an Orbitrap Elite mass spectrometer (Thermo-Fisher) using data-dependent acquisition.

B1: VGLL1-derived 10-mer peptide LSELETPGKY (peptide)
peptide: LSELETPGKY
notes: This is the native peptide eluted from immunoprecipitated HLA class I. The 13C/15N-lysine labeled synthetic peptide served only as the MS standard; also called VGLL1 231-240 peptide; VGLL1 peptide
On to B1, for which, in the experiment with HLA-A*0101, the binding result is “binds”.

B2: VGLL1 TCR #1 (TCR, V domains shown)
Valpha: AQKVTQAQTEISVVEKEDVTLDCVYETRDTTYYLFWYKQPPSGELVFLIRRNSFDEQNEISGRYSWNFQKSTSSFNFTITASQVVDSAVYFCALSPGANSKLTFGKGITLSVRP
Vbeta: DAGVTQSPTHLIKTRGQQVTLRCSPKSGHDTVSWYQQALGQGPQFIFQYYEEEERQRGNFPDRFSGHQFPNYSSELNVNALLLGDSALYLCASSVGTGITEAFFGQGTRLTVV
Turning to B2, in experiment [1], the binding result is “recognises”.

B3: VGLL1 TCR #2 (TCR, V domains shown)
Valpha: ENVEQHPSTLSVQEGDSAVIKCTYSDSASNYFPWYKQELGKRPQLIIDIRSNVGEKKDQRIAVTLNKTAKHFSLHITETQPEDSAVYFCAARGLTGGGNKLTFGTGTQLKVEL
Vbeta: GVTQSPTHLIKTRGQQVTLRCSPKSGHDTVSWYQQALGQGPQFIFQYYEEEERQRGNFPDRFSGHQFPNYSSELNVNALLLGDSALYLCASSVGTGITEAFFGQGTRLTVV
Regarding B3, the binding result in experiment [1] is “recognises”.

B4: VGLL1 TCR #4 (TCR, V domains shown)
Valpha: QQQVKQSPQSLIVQKGGISIINCAYENTAFDYFPWYQQFPGKGPALLIAIRPDVSEKKEGRFTISFNKSAKQFSLHIMDSQPGDSATYFCAAVRYNFNKFYFGSGTKLNVKP
Vbeta: B3 Vbeta
For the molecule B4, the binding result in experiment [1] is “recognises”.

B5: VGLL1 TCR #3 (TCR, V domains shown)
Valpha: ENVEQHPSTLSVQEGDSAVIKCTYSDSASNYFPWYKQELGKRPQLIIDIRSNVGEKKDQRIAVTLNKTAKHFSLHITETQPEDSAVYFCAAIPNSGGYQKVTFGIGTKLQVIP
Vbeta: B3 Vbeta
With B5, the binding result in experiment [1] is listed as “recognises”.

The record behind these values is patent publication US20230212256A1 (University of Texas, published 2023).
